Experimental findings from paper PMC6529018 are described below.

The assay addresses Recombinant His-BifA (full length) (Streptococcus equi subsp. zooepidemicus ATCC35246). Nature of the assay: SPR; Biacore X100; His-BifA and its variants immobilised on NTA sensorchips, moesin, moesin T558A or moesin T558D injected. A general note: In SPR one partner is held on a chip, and binding of the other changes the refractive index at the surface.

Usually Kd stands for the equilibrium constant for the complex coming apart. As to “Recombinant moesin T558A, non-tagged (from UniProt P26038 1-577) (natural protein)”, the Kd came out at 0.737 µM. In the case of “Recombinant moesin T558D, non-tagged (from UniProt P26038 1-577) (natural protein)”, the Kd was determined as 0.0108 µM.
